Measured values from the supplement of paper PMC10065799, “High-throughput profiling of sequence recognition by tyrosine kinases and SH2 domains using bacterial peptide display” (eLife, 2023).

Key:
SHP2-C SH2 = assay: SH2 binding enrichment of the phosphorylated peptide, bacterial display (enrichment ratio); higher = better substrate or ligand; peptides without Tyr show the background
Grb2 SH2 = Grb2 SH2 (UniProt P62993); assay: as above
c-Src SH2 = assay: as above
Jak2 = Jak2 (UniProt O60674); assay: phosphorylation enrichment, bacterial display (enrichment ratio); higher = better substrate or ligand; peptides without Tyr show the background
Fyn = Fyn (UniProt P06241); assay: as above
Hck = Hck (UniProt P08631); assay: as above
AncSZ = assay: as above
EPHB2 = EPHB2 (UniProt P29323); assay: as above
Fes = Fes (UniProt P07332); assay: as above
Chain of Fes (P07332 whole entry, looked up): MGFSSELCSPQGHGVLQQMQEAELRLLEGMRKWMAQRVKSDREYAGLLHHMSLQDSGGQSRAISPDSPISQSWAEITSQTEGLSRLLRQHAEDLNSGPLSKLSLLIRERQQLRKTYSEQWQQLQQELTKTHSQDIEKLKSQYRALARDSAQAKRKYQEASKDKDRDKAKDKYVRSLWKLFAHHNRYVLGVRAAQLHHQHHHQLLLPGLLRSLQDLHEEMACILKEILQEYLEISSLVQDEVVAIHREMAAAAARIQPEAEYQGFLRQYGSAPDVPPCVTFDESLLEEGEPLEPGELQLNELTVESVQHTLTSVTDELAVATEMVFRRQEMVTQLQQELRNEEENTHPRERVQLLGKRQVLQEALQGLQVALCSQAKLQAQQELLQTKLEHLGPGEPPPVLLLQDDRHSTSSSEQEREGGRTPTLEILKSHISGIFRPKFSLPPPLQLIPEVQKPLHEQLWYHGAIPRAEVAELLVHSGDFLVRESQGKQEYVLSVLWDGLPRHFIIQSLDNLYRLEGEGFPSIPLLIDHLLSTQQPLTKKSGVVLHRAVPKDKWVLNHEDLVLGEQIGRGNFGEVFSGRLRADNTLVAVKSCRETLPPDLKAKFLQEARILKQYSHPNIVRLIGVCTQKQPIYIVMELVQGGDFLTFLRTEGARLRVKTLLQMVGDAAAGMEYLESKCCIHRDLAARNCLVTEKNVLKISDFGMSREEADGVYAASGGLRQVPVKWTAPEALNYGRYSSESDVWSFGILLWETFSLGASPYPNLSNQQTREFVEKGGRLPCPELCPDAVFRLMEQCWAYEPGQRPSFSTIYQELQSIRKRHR

FGFR1 = FGFR1 (UniProt P11362); assay: as above
Chain of FGFR1 (P11362 whole entry, looked up): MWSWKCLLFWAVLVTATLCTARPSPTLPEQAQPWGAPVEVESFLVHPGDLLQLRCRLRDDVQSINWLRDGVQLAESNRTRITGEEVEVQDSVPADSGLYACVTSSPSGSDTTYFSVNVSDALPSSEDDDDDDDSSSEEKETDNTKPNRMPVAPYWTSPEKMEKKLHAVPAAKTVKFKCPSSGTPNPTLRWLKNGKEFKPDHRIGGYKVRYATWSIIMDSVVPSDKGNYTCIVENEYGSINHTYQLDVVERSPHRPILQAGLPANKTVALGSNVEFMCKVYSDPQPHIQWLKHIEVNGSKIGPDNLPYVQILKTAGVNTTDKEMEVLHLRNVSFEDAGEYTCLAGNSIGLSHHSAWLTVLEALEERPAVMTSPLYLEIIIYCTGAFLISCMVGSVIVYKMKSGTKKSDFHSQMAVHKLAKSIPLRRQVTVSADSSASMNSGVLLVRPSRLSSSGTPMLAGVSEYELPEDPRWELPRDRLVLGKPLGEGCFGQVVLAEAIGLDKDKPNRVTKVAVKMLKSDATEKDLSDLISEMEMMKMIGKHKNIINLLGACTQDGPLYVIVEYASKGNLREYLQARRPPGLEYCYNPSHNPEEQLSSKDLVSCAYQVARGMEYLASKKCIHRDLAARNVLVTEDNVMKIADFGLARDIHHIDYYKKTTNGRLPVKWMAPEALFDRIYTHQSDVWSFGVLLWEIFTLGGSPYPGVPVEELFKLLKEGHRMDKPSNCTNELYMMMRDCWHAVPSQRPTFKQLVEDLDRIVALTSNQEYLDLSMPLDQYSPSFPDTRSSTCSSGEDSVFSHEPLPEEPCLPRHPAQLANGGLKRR

c-Src = assay: as above
FGFR3 = FGFR3 (UniProt P22607); assay: as above
Chain of FGFR3 (P22607 whole entry, looked up): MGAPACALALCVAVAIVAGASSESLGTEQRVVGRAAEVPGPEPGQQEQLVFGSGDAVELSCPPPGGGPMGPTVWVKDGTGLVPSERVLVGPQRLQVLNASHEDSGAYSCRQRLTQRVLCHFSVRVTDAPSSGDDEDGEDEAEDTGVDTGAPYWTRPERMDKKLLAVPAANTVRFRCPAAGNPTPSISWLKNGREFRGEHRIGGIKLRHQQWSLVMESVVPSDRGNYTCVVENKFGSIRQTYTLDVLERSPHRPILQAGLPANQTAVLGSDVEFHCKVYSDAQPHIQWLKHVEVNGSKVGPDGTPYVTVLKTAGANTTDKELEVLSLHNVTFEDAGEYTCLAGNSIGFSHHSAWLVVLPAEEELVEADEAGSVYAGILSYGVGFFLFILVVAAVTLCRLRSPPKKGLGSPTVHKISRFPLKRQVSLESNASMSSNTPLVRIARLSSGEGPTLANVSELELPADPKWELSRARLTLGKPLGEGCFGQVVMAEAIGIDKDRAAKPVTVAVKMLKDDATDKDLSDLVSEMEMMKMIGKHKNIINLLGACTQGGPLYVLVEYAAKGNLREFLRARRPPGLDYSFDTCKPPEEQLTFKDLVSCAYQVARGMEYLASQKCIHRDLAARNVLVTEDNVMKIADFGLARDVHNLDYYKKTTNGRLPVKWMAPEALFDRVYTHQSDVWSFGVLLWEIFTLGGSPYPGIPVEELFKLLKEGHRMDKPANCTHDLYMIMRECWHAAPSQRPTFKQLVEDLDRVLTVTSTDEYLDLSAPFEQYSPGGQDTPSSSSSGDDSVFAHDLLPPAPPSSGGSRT

Fer (mouse) = assay: as above
EPHB1 = EPHB1 (UniProt P54762); assay: as above
Chain of EPHB1 (P54762 whole entry, looked up): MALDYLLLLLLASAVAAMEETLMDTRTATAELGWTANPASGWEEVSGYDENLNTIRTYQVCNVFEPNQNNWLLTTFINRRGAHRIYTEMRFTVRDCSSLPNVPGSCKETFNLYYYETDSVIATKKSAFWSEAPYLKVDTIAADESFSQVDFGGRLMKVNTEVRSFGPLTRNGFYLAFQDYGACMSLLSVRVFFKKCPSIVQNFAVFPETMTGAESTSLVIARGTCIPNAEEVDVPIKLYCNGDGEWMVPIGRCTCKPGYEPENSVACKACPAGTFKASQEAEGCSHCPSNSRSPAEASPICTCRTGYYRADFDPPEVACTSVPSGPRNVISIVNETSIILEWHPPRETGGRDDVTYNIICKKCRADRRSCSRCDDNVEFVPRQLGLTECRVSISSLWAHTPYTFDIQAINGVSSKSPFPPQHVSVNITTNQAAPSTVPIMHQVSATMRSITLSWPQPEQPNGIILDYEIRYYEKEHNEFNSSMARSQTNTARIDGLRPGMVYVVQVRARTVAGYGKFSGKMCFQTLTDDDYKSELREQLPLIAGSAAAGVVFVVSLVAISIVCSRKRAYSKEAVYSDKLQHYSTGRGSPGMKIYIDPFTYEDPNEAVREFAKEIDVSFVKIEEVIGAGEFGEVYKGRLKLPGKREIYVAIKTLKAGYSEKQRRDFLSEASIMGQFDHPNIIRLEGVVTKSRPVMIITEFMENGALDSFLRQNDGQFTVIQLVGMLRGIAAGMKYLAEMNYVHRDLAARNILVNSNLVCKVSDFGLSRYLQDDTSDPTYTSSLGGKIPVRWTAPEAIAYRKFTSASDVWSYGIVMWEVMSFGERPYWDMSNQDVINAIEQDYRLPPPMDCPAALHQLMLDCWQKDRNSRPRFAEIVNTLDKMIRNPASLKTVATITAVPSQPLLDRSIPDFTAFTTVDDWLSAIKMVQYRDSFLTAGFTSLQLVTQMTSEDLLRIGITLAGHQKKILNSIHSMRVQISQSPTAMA

MERTK = MERTK (UniProt Q12866); assay: as above
Chain of MERTK (Q12866 whole entry, looked up): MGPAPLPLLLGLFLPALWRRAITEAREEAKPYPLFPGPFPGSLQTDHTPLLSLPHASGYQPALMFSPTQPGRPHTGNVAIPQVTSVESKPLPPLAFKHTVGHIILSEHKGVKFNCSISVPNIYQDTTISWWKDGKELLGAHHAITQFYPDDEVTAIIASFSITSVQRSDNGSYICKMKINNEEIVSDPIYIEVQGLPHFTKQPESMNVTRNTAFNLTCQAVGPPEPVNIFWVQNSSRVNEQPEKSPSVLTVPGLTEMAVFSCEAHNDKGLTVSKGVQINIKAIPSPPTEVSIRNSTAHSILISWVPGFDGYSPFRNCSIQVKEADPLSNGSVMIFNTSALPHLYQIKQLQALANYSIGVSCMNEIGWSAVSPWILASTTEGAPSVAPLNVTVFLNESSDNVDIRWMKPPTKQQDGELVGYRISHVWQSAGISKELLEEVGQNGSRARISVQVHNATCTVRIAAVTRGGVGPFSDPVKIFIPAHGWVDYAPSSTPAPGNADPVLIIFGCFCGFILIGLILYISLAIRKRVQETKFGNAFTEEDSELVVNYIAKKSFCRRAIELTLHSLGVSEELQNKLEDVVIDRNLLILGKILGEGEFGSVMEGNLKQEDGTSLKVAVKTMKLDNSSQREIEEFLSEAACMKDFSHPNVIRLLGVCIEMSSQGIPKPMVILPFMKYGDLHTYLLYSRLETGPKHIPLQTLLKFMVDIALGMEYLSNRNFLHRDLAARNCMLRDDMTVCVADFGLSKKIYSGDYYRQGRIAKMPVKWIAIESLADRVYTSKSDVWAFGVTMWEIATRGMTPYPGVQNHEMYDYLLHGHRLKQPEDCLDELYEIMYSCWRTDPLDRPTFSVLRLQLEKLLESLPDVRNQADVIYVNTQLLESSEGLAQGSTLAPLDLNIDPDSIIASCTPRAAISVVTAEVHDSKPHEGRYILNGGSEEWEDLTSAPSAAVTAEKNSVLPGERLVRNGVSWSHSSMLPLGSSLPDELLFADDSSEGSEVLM

c-Abl (mouse) = assay: as above
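For SH2 binding enrichment of the phosphorylated peptide, bacterial display in this document: peptide library displayed on the E. coli surface as eCPX fusions, selected cells deep-sequenced, score is each peptide's frequency after selection divided by its frequency in the input.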
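For phosphorylation enrichment, bacterial display in this document: 11-residue human phosphosite peptides and single-mutation variants displayed on the E. coli surface, counted by deep sequencing, each peptide's frequency after selection divided by its frequency in the unselected input library; frequency after pTyr selection over input frequency; kinase dosed for 20-30% of maximal phosphorylation in three min.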

Chain of Grb2 SH2 (P62993 whole entry, looked up): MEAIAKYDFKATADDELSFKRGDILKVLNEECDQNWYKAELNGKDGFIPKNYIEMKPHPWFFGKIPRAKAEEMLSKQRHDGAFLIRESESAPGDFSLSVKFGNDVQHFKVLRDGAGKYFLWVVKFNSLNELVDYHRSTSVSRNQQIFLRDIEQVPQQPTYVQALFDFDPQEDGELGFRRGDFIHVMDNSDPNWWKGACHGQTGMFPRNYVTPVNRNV

Row | Sequence | SH2 binding enrichment (SHP2-C SH2) | SH2 binding enrichment (Grb2 SH2) | SH2 binding enrichment (c-Src SH2) | phosphorylation enrichment (Jak2) | phosphorylation enrichment (Fyn) | phosphorylation enrichment (Hck) | phosphorylation enrichment (AncSZ) | phosphorylation enrichment (EPHB2) | phosphorylation enrichment (Fes) | phosphorylation enrichment (FGFR1) | phosphorylation enrichment (c-Src) | phosphorylation enrichment (FGFR3) | phosphorylation enrichment (Fer (mouse)) | phosphorylation enrichment (EPHB1) | phosphorylation enrichment (MERTK) | phosphorylation enrichment (c-Abl (mouse))
1 | AFAEVYEGQVS [ALK_Y1131_G1128A] | 0.769 | 0.888 | 0.506 | 1.09 | 0.563 | 0.796 | 1.07 | 0.504 | 0.974 | 0.414 | 1.21 | 0.695 | 0.518 | 0.559 | 0.484 | 0.868
2 | LTDLRYKVSGP | 0.82 | 1.04 | 0.407 | 0.687 | 0.537 | 0.594 | 0.644 | 0.957 | 1.11 | 0.43 | 0.255 | 1.13 | 0.588 | 0.518 | 0.464 | 0.684
3 | GKMPQYLESMQ [CYB5R3_Y130_S128P] | 0.932 | 0.906 | 0.571 | 0.73 | 0.537 | 0.466 | 0.741 | 0.412 | 0.701 | 0.517 | 0.459 | 0.554 | 0.304 | 0.492 | 0.473 | 0.614
4 | GTAPSYGNPSS [CD19_Y378] | 0.556 | 0.907 | 0.45 | 0.594 | 0.358 | 0.336 | 0.517 | 0.362 | 0.56 | 0.38 | 0.496 | 0.494 | 0.299 | 0.407 | 0.432 | 0.589
5 | CTTIHYNFMCK [TP53_Y234_N239K_YF] | 2.05 | 1.4 | 1.68 | 0.631 | 0.476 | 0.533 | 0.659 | 0.387 | 0.816 | 0.418 | 0.413 | 0.489 | 0.351 | 0.403 | 0.407 | 0.562
6 | ELELLYLDRNS [NYX_Y284] | 0.7 | 1.03 | 0.59 | 0.761 | 0.494 | 0.551 | 0.934 | 0.519 | 0.904 | 0.493 | 0.515 | 0.634 | 0.408 | 0.518 | 0.347 | 0.573
7 | FLEKFYKFGSR [NNMT_Y25_YF] | 0.789 | 0.883 | 0.428 | 0.679 | 0.413 | 0.341 | 0.723 | 0.6 | 0.746 | 0.571 | 0.365 | 0.548 | 0.389 | 0.592 | 0.433 | 0.551
8 | WDLPEYSYKDP [ITGA3_Y237_S235P] | 0.77 | 0.89 | 0.784 | 1.18 | 1.12 | 0.787 | 2.12 | 0.651 | 1.18 | 0.688 | 0.495 | 0.926 | 0.517 | 0.631 | 0.464 | 0.545
9 | AGIENYTSRFG [NKD2_Y256] | 0.625 | 0.767 | 0.485 | 0.465 | 0.421 | 0.329 | 0.569 | 0.386 | 0.719 | 0.434 | 0.426 | 0.529 | 0.383 | 0.817 | 0.418 | 0.585
10 | EILLSYLRTGY [TGM1_Y365] | 1.14 | 1.17 | 0.845 | 1.4 | 0.524 | 0.536 | 1.06 | 0.612 | 1.1 | 0.559 | 0.462 | 0.749 | 0.548 | 0.544 | 0.413 | 0.922
11 | AHAGKYGAEAL [HBA1_Y25_E24K] | 0.608 | 0.818 | 0.452 | 0.544 | 0.423 | 0.368 | 0.677 | 0.338 | 0.796 | 0.4 | 0.387 | 0.42 | 0.342 | 0.453 | 0.347 | 0.451
12 | RWHEGYRQTPK [CD44_Y412] | 1.73 | 1.47 | 0.898 | 0.607 | 0.418 | 0.429 | 0.66 | 0.589 | 0.678 | 0.405 | 0.361 | 0.595 | 0.367 | 0.407 | 0.356 | 0.418
13 | QKTGDYFDLFG [PTPN11_Y62_N58K_YF] | 0.854 | 1.02 | 0.583 | 7.57 | 0.971 | 0.442 | 2.17 | 6.35 | 1.04 | 20.1 | 0.639 | 17 | 0.434 | 11 | 1.04 | 0.815
14 | ALAHEYHGGGG [HBB_Y146_K145E] | 0.627 | 0.776 | 0.696 | 0.599 | 0.361 | 0.425 | 0.469 | 0.314 | 0.461 | 0.41 | 0.41 | 0.361 | 0.354 | 0.397 | 0.287 | 0.493
15 | LGPDGYSTVDR [ARVCF_Y901] | 1.18 | 0.927 | 29.2 | 1.01 | 0.679 | 0.405 | 2.11 | 0.594 | 1.31 | 0.617 | 0.395 | 0.81 | 0.709 | 0.318 | 0.553 | 0.909
16 | NSVLVYRNGDP [DCDC2_Y22_K17N] | 0.614 | 0.773 | 0.401 | 0.627 | 0.443 | 0.492 | 0.621 | 0.463 | 0.678 | 0.393 | 0.591 | 0.533 | 0.373 | 0.532 | 0.454 | 0.534
